Experimental data reported in US7919276.
Like-named read-outs stand apart in the source and are kept apart here. Ends that are not written are not given here.

What was measured:
[1] = target: T1, lysine-acetylated histone H4 peptide SGRGKGG-AcK-GLGK; assay: NMR titration, 15N-HSQC chemical shift changes against ligand concentration; conditions: remark: other sources report otherwise
T1 chain: SGRGKGGKGLGK

[2] = target: T2, lysine-acetylated histone H4 peptide SGRGKGG-AcK-GLGK; assay: as above
T2 construct: also called H4 AcK-Peptide; AcK peptide
T2 peptide: SGRGKGGK(Ac)GLGK

[3] = target: T2, lysine-acetylated histone H4 peptide …; assay: NMR titration, 15N-HSQC chemical shift changes
[4] = target: T3, lysine-acetylated histone H4 peptide SGRGKGG-AcK-GLGK; assay: NMR titration, 15N-HSQC
T3 construct: also called AcK peptide; AcK-containing H4 peptide
T3 peptide: SGRGKGGK(Ac)GLGK

B1: P/CAF bromodomain Tyr802Ala mutant, Q92831 719-832 (protein)
chain: SKEPRDPDQLYSTLKSILQQVKSHQSAWPFMEPVKRTEAPGYYEVIRFPMDLKTMSERLKNRYYVSKKLFMADLQRVFTNCKEANAAESEYYKCANILEKFFFSKIKEAGLIDK
modifications: here or on the partner: acetyl-lysine (AcK) at Lys8
[1]
  Kd: > 10 mM

B2: P/CAF bromodomain Tyr760Ala mutant, Q92831 719-832 (protein)
chain: SKEPRDPDQLYSTLKSILQQVKSHQSAWPFMEPVKRTEAPGAYEVIRFPMDLKTMSERLKNRYYVSKKLFMADLQRVFTNCKEYNAAESEYYKCANILEKFFFSKIKEAGLIDK
modifications: here or on the partner: acetyl-lysine (AcK) at Lys8
[1]
  Kd: > 10 mM

B3: P/CAF bromodomain Val752Ala mutant, Q92831 719-832 (protein)
chain: SKEPRDPDQLYSTLKSILQQVKSHQSAWPFMEPAKRTEAPGYYEVIRFPMDLKTMSERLKNRYYVSKKLFMADLQRVFTNCKEYNAAESEYYKCANILEKFFFSKIKEAGLIDK
modifications: here or on the partner: acetyl-lysine (AcK) at Lys8
[1]
  Kd: > 10 mM

B4: P/CAF bromodomain (residues 719-832 of human p300/CBP-associated factor), wild-type (other)
chain: SKEPRDPDQLYSTLKSILQQVKSHQSAWPFMEPVKRTEAPGYYEVIRFPMDLKTMSERLKNRYYVSKKLFMADLQRVFTNCKEYNAAESEYYKCANILEKFFFSKIKEAGLIDK
notes: Expressed in E. coli with an N-terminal poly-His tag that thrombin removed; residues left over from the vector are not described; 15N-labelled for the NMR titration; also called hsp/CAF bromodomain; bromodomain of P/CAF
[2]
  Kd: 346 µM

B5: P/CAF bromodomain Tyr809Ala mutant (other)
chain: SKEPRDPDQLYSTLKSILQQVKSHQSAWPFMEPVKRTEAPGYYEVIRFPMDLKTMSERLKNRYYVSKKLFMADLQRVFTNCKEYNAAESEAYKCANILEKFFFSKIKEAGLIDK
notes: Point mutant of the P/CAF bromodomain made by site-directed mutagenesis
[3]
  binding result: no binding

B6: P/CAF bromodomain Tyr809Ala mutant (other)
chain: SKEPRDPDQLYSTLKSILQQVKSHQSAWPFMEPVKRTEAPGYYEVIRFPMDLKTMSERLKNRYYVSKKLFMADLQRVFTNCKEYNAAESEAYKCANILEKFFFSKIKEAGLIDK
notes: Made by site-directed mutagenesis of the wild-type bromodomain construct
[4]
  binding result: no binding
